Results published in paper PMC6848142.

System: KRAS wild type
Experiment: MST
Conditions: MST: labeled protein 20 nM final in PBS, RNA diluted in deionized water and mixed 1:1; RNA folded in TE (70 C 5 min, then ice 15 min); pH and assay temperature …

Row | Substance | Kd
1 | SNORD50A | 140 nM
2 | SNORD50B | 122 nM
